Test results from US20240360227A1.
Numbering of substitutions follows the chain as printed.

B1: VRDN-02029 (antibody, V domains shown)
VH: QVQLQESGPGLVKPSETLSLTCTVSGYSITGGYLWNWIRQPPGKGLEWIGYISYDGTNNYKPSLKDRVTISRDTSKNQFSLKLSSVTAADTAVYYCARYGRVFFDYWGQGTLVTVSS
VL: DIVMTQSPLSLPVTPGEPASISCHSSQSIVHSNGNTYLQWYLQKPGQSPQLLIYKVSNRLYGVPDRFSGSGSGTDFTLKISRVEAEDVGVYYCFQGSHVPWTFGQGTKVEIK
B2: VRDN-02030 (antibody, V domains shown)
VH: B1 VH
VL: B1 VL with H24R, S25H
B3: VRDN-02031 (antibody, V domains shown)
VH: B1 VH
VL: B1 VL with H24R, S26H
B4: VRDN-02003 (antibody, V domains shown)
VH: B1 VH with S28H
VL: B1 VL with H24R
B5: VRDN-02032 (antibody, V domains shown)
VH: B1 VH
VL: B1 VL with H24R, Q27H
B6: VRDN-02033 (antibody, V domains shown)
VH: B1 VH
VL: B1 VL with H24R, S28H
B7: VRDN-02034 (antibody, V domains shown)
VH: B1 VH
VL: B1 VL with H24R, I29H
B8: VRDN-02035 (antibody, V domains shown)
VH: B1 VH
VL: B1 VL with H24R, V30H
B9: VRDN-02036 (antibody, V domains shown)
VH: B1 VH
VL: B1 VL with H24R, S32H
B10: VRDN-02037 (antibody, V domains shown)
VH: B1 VH
VL: B1 VL with H24R, N33H
B11: VRDN-02038 (antibody, V domains shown)
VH: B1 VH
VL: B1 VL with H24R, G34H
B12: VRDN-02039 (antibody, V domains shown)
VH: B1 VH
VL: B1 VL with H24R, N35H
B13: VRDN-02040 (antibody, V domains shown)
VH: B1 VH
VL: B1 VL with H24R, T36H
B14: VRDN-02041 (antibody, V domains shown)
VH: B1 VH
VL: B1 VL with H24R, Y37H
B15: VRDN-02004 (antibody, V domains shown)
VH: B1 VH with I29H
VL: B1 VL with H24R
B16: VRDN-02042 (antibody, V domains shown)
VH: B1 VH
VL: B1 VL with H24R, L38H
B17: VRDN-02043 (antibody, V domains shown)
VH: B1 VH
VL: B1 VL with H24R, Q39H
B18: VRDN-02044 (antibody, V domains shown)
VH: B1 VH
VL: B1 VL with H24R, K55H
B19: VRDN-02045 (antibody, V domains shown)
VH: B1 VH
VL: B1 VL with H24R, V56H
B20: VRDN-02046 (antibody, V domains shown)
VH: B1 VH
VL: B1 VL with H24R, S57H
B21: VRDN-02047 (antibody, V domains shown)
VH: B1 VH
VL: B1 VL with H24R, N58H

target: Recombinant human his-tagged IGF R extracellular domain protein (human) (UniProt P08069); experiment: SPR, Ab captured via anti-huIgG Fc, dissociation at pH 6

Q: B1 was tested. Which Kd did it give?
A: 1.1 nM

Q: What about the koff of the same binder?
A: 9.38e-05 s⁻¹

Q: And the kon?
A: 85600 M⁻¹ s⁻¹

Q: B2 was tested. Which Kd did it give?
A: 1.09 nM

Q: And the koff?
A: 9.65e-05 s⁻¹

Q: And the kon?
A: 88900 M⁻¹ s⁻¹

Q: B3 was tested. Which Kd did it give?
A: 1.22 nM

Q: And the koff?
A: 0.000115 s⁻¹

Q: What about the kon of the same binder?
A: 94400 M⁻¹ s⁻¹

Q: Which Kd does the source give for B4 here?
A: 1 nM

Q: And the koff?
A: 9.44e-05 s⁻¹

Q: And the kon?
A: 94300 M⁻¹ s⁻¹

Q: With B5 as the binder, how does the Kd read?
A: 0.998 nM

Q: What about the koff of the same binder?
A: 9.61e-05 s⁻¹

Q: What about the kon of the same binder?
A: 96300 M⁻¹ s⁻¹

Q: How did the Kd turn out when B6 was run?
A: 1.19 nM

Q: And the koff?
A: 0.00011 s⁻¹

Q: What about the kon of the same binder?
A: 92700 M⁻¹ s⁻¹

Q: Which results are given for B7?
A: Kd: 1.26 nM; koff: 0.000107 s⁻¹; kon: 85000 M⁻¹ s⁻¹

Q: For B8, which Kd is on record?
A: 1.22 nM

Q: What about the koff of the same binder?
A: 0.000107 s⁻¹

Q: And the kon?
A: 87600 M⁻¹ s⁻¹

Q: How did the Kd turn out when B9 was run?
A: 1.08 nM

Q: And the koff?
A: 0.000102 s⁻¹

Q: And the kon?
A: 94200 M⁻¹ s⁻¹

Q: For B10, which Kd is on record?
A: 1.44 nM

Q: What about the koff of the same binder?
A: 0.000101 s⁻¹

Q: What about the kon of the same binder?
A: 70000 M⁻¹ s⁻¹

Q: How did the Kd turn out when B11 was run?
A: 1.31 nM

Q: And the koff?
A: 0.000111 s⁻¹

Q: What about the kon of the same binder?
A: 84800 M⁻¹ s⁻¹

Q: B12 was tested. Which Kd did it give?
A: 1.36 nM

Q: And the koff?
A: 0.000109 s⁻¹

Q: What about the kon of the same binder?
A: 79800 M⁻¹ s⁻¹

Q: Which results are given for B13?
A: Kd: 1.04 nM; koff: 9.07e-05 s⁻¹; kon: 87000 M⁻¹ s⁻¹

Q: What does the source list for B14?
A: Kd: 1.16 nM; koff: 0.000102 s⁻¹; kon: 87800 M⁻¹ s⁻¹

Q: Which results are given for B15?
A: Kd: 6.19 nM; koff: 0.000593 s⁻¹; kon: 95700 M⁻¹ s⁻¹

Q: Which results are given for B16?
A: Kd: 1.08 nM; koff: 0.000101 s⁻¹; kon: 94100 M⁻¹ s⁻¹

Q: For B17, which Kd is on record?
A: 1.13 nM

Q: And the koff?
A: 9.08e-05 s⁻¹

Q: And the kon?
A: 80400 M⁻¹ s⁻¹

Q: Which Kd does the source give for B18 here?
A: 0.759 nM

Q: And the koff?
A: 6.27e-05 s⁻¹

Q: And the kon?
A: 82600 M⁻¹ s⁻¹

Q: With B19 as the binder, how does the Kd read?
A: 1.66 nM

Q: And the koff?
A: 8.63e-05 s⁻¹

Q: And the kon?
A: 51900 M⁻¹ s⁻¹

Q: Which results are given for B20?
A: Kd: 1.29 nM; koff: 0.000103 s⁻¹; kon: 79900 M⁻¹ s⁻¹

Q: For B21, which Kd is on record?
A: 1.48 nM

Q: And the koff?
A: 9.84e-05 s⁻¹

Q: What about the kon of the same binder?
A: 66600 M⁻¹ s⁻¹

target: Recombinant human his-tagged IGF R extracellular domain protein (human) (UniProt P08069); experiment: SPR, Ab captured via anti-huIgG Fc, pH 7.4

Q: How did the Kd turn out when B1 was run?
A: 0.599 nM

Q: What about the koff of the same binder?
A: 5.53e-05 s⁻¹

Q: And the kon?
A: 92400 M⁻¹ s⁻¹

Q: For B2, which Kd is on record?
A: 0.646 nM

Q: And the koff?
A: 5.48e-05 s⁻¹

Q: What about the kon of the same binder?
A: 84800 M⁻¹ s⁻¹

Q: For B3, which Kd is on record?
A: 0.468 nM

Q: What about the koff of the same binder?
A: 4.56e-05 s⁻¹

Q: And the kon?
A: 97300 M⁻¹ s⁻¹

Q: For B4, which Kd is on record?
A: 0.423 nM

Q: And the koff?
A: 4.72e-05 s⁻¹

Q: What about the kon of the same binder?
A: 112000 M⁻¹ s⁻¹

Q: For B5, which Kd is on record?
A: 0.769 nM

Q: And the koff?
A: 7.16e-05 s⁻¹

Q: And the kon?
A: 93100 M⁻¹ s⁻¹

Q: What does the source list for B6?
A: Kd: 0.822 nM; koff: 8.1e-05 s⁻¹; kon: 98500 M⁻¹ s⁻¹

Q: Which Kd does the source give for B7 here?
A: 1.03 nM

Q: And the koff?
A: 0.000105 s⁻¹

Q: And the kon?
A: 101000 M⁻¹ s⁻¹

Q: How did the Kd turn out when B8 was run?
A: 0.646 nM

Q: What about the koff of the same binder?
A: 6.32e-05 s⁻¹

Q: What about the kon of the same binder?
A: 97800 M⁻¹ s⁻¹

Q: Which Kd does the source give for B9 here?
A: 0.444 nM

Q: What about the koff of the same binder?
A: 4.42e-05 s⁻¹

Q: What about the kon of the same binder?
A: 99500 M⁻¹ s⁻¹

Q: How did the Kd turn out when B10 was run?
A: 0.844 nM

Q: What about the koff of the same binder?
A: 6.43e-05 s⁻¹

Q: And the kon?
A: 76200 M⁻¹ s⁻¹

Q: B11 was tested. Which Kd did it give?
A: 0.649 nM

Q: What about the koff of the same binder?
A: 5.36e-05 s⁻¹

Q: And the kon?
A: 82600 M⁻¹ s⁻¹

Q: With B12 as the binder, how does the Kd read?
A: 0.586 nM

Q: What about the koff of the same binder?
A: 5.26e-05 s⁻¹

Q: And the kon?
A: 89800 M⁻¹ s⁻¹

Q: How did the Kd turn out when B13 was run?
A: 1.22 nM

Q: And the koff?
A: 0.000104 s⁻¹

Q: What about the kon of the same binder?
A: 85400 M⁻¹ s⁻¹

Q: What does the source list for B14?
A: Kd: 0.795 nM; koff: 7.59e-05 s⁻¹; kon: 95500 M⁻¹ s⁻¹

Q: B15 was tested. Which Kd did it give?
A: 7.78 nM

Q: What about the koff of the same binder?
A: 0.000684 s⁻¹

Q: What about the kon of the same binder?
A: 87800 M⁻¹ s⁻¹

Q: What does the source list for B16?
A: Kd: 0.704 nM; koff: 7.31e-05 s⁻¹; kon: 104000 M⁻¹ s⁻¹

Q: For B17, which Kd is on record?
A: 0.746 nM

Q: And the koff?
A: 6.22e-05 s⁻¹

Q: And the kon?
A: 83400 M⁻¹ s⁻¹

Q: Which Kd does the source give for B18 here?
A: 0.551 nM

Q: And the koff?
A: 4.69e-05 s⁻¹

Q: What about the kon of the same binder?
A: 85200 M⁻¹ s⁻¹

Q: Which results are given for B19?
A: Kd: 1.1 nM; koff: 6.49e-05 s⁻¹; kon: 59200 M⁻¹ s⁻¹

Q: What does the source list for B20?
A: Kd: 0.569 nM; koff: 5.23e-05 s⁻¹; kon: 92000 M⁻¹ s⁻¹

Q: Which results are given for B21?
A: Kd: 0.622 nM; koff: 5.34e-05 s⁻¹; kon: 85900 M⁻¹ s⁻¹
